The values that follow come from the domain aggregation screens of Martell et al. (2025).
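Also: 20 min heating vs room temperature control held 20 min.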

This data set is described as follows: soluble fraction after stress (log2 fold change); higher = more stays soluble; pooled small domains, quantitative proteomics. The note with it: stress: 75 degC.
For the sequence “HMENWMPNLVNQDKRLAINTLRELGFTEEAGNLVIREETSEDVTKDYVISTDPVAETDLADVEKVTLVVSS”, the “soluble fraction (log2)” value was found to be 0.116.
On to “HMENYIEQLTAKNSEYIHVVTRELVKIGKSDEEIKAILSDILPQIVAAQDQRVLAKDILGTPSEFTAKYAP”, for which the “soluble fraction (log2)” value came out at 0.462.
Regarding “HMEPDDLTVIKGIGPVAAKDLNEQGIITFAQLAKLSDKDVAKIDEHMPFSADQIKDWREQAKELAK”, the “soluble fraction (log2)” value was determined as 0.739.
The result for “HMEPDEIVLDHRKRIENSDAIVLIAPIWNFRMPAILEGWIDKVLAPPWAFKFKKLFGNYGYPVGNLKG” reads 0.0917; that for “HMEPDTVVVPNFVGKVYASEIEGNEAYSDFTFVIKEGNDPEQDIGVVLKQTPNEGLEVKKGKEITLTINQ”, 0.031.
For the sequence “HMEPEAKIDFILKAAQKRLGLYGYEKTTMQEIAADINMSKAALYYYFPDKESLFKAVVENEQEEYFH”, the “soluble fraction (log2)” value was -1.97.
“HMEPEDVIAMERYLASGAIKGIGVTLAGRIIKKFQKETFHIIEEEPERLSEVKGISEKLAREIYQQFTQK”: the “soluble fraction (log2)” value was -1.11.
As for “HMEPERRHLEVPAEAEGERIDRFLASQLENLSRSRIQALIKAGYVRNRRGTIEDPGLRVKPGDAFVVDLPP”, the figure is 0.354; as for “HMEPEVEITYFKPDERKAGGAYVTVTGAVIKVDDFERLITMQDGTKIPMDDILSIDGELFLS”, -0.502.
Consider “HMEPGEVQVDGLRFIAQPQERNDFEVALEQFRAGNFAAARKSFAAFINTYKQSGYLPSARFW”, for which the “soluble fraction (log2)” value was determined as 0.0135.
As for “HMEPLKLGDATGDGKINLQDVLEMQKHMAGILVLKGKFFTAADVNGNGKIELVDVLSVQKYLAGVTAEV”, the figure is 0.11; as for “HMEPLVSKVFQVSYQKTADLVALIKSEDSKLLSARGTLISDERTSQIFVQDTPTRLERISMIVNGL”, -0.889; as for “HMEPMNMYSSIKKVIGVVSGKGGVGKSLVTASLARMMRAKGYHVGIMDADITGPSIPKMYGLHEMA”, 0.395.
“HMEPVDYEALRKELMQKVMGLFTQSRDVGIQILSSFGAKKLSDVPDDKLVAFAASVDKALAG”: the “soluble fraction (log2)” value was -0.193.
For “HMEPVQFIQFKIPDGHPWSGQLLREVRLPPGTLVVLLKHDGKNIIPNGETPLLAGDSVILSAASPT”, the “soluble fraction (log2)” value is -0.567.
As for “HMEQAAQPQTGFDPRRLKAGDAVHLLALDQRGVLLEDPKPGAESAPVSVGVAGVRVVVPLREMEALPAG”, the “soluble fraction (log2)” value worked out at 0.0201.
On to “HMEQEVLDLLFDAIRSLPEKYRRLFDMSFEQGLKNAEIAALLHVSESAVKKQKASMIQQLRDDLLRKTGKD”, for which the “soluble fraction (log2)” value is -0.745.
In the case of “HMEQFDFTILRELRKRAGLSIGEVSAESGVSAAVISKLERNRTRAELDTLYRLARVFGITAAELLNLAEA”, the “soluble fraction (log2)” value was -2.19.
The result for “HMEQIETIFLSAAPYARTHIIHLLETSELFRDKYLTIVETSNGLLIYTEDKNRLLGILNSLT” reads -2.51; that for “HMEQIFTELIMDGRVLGENLHRMGVDETWLLRQLRQQGYHSAREVFLAVADANKQVAVYPVS”, -0.381.
For “HMEQINVTIQTEKGRIDKVLSEHLPNHSRSQIQQWLKEKHVTVNGETVRANYKVTAGDEIVVTIPEPEV”, the “soluble fraction (log2)” value came to 0.546.
As to “HMEQISDEDTLRKMVNEVLDNNQTQLEQYKSGKTNLIGFFVGQTLKKSAGKANPSIVNKLVNEEIYI”, the “soluble fraction (log2)” value amounted to 0.141.
For “HMEQISIETRIEQLLARLSETEASGFEELFADTSSRADLITTFLALLEMIRLKLVRVFQDGSFGPIRIYKR”, the “soluble fraction (log2)” value is -0.572.
For the sequence “HMEQKISVPALVGRDIEEILADTEVTGNFTIKEADKRVASNRPVGEVLEQDPGTGESAVKGTIITVTVSAG”, the “soluble fraction (log2)” value is -0.0542.
“HMEQNTKAYEQVRTLTDLLNQYRHEYYNLSAPSVSDQEYDRLFDALAALEKQTGIVMSNSPTQTVG”: the “soluble fraction (log2)” value was 0.0212.
As for “HMEQPAPSTTVDILGGGRAALVTANRELGLALADDEIDYLTDSFTQLGRNPVDVELMMFAQA”, the figure is -0.00398.
Turning to “HMEQSLNTYSIRTVKESLFLAETKNLNKIEKLVEGIEGRLTLSEALVLFSDKLNAMSVLSHVNANT”, the “soluble fraction (log2)” value was -0.154.
As for “HMEQTIKKYVNVATLNFRSGPSTSYSIISTLSKGTKVEVISTTNNWSKIIYDGKIGYVSSEYLSKSI”, the “soluble fraction (log2)” value is -3.07.
The result for “HMEQVPEAVGRRVRQARSDRGWTLDQLAERSEVSRRMIVNVEAGTSNASIATLLRLATALNVGLAELVA” reads -1.61.
As to “HMEQVVFNGTGRRKSSIARVRIMSGKGNITVNGKALDEYFGEETLKVIVRQPLTVTDTLDKYDVIATVK”, the “soluble fraction (log2)” value stood at 0.0911.
As for “HMEQYYVFFAGGMTIGTKEWYESILPENIATSYDDILEGKMMPASLEQIEFYNSHKDYDLYHLFYML”, the “soluble fraction (log2)” value is -4.25.
“HMERAFRILELFDLKQDELPITEIAERTGLPISTAHRLLSTLETLGYIAQNPDNGRYRLGLQTFVLGSR”: the “soluble fraction (log2)” value was -1.86.
As to “HMERAPAYPDGLTQREVEVLRLIASGKTDREIAEELFIGVRTVSTHVGNILNKTNSANRTEAASYANQQGL”, the “soluble fraction (log2)” value was -0.0632.
As to “HMEREQNIAQGREVVQRELKRLGLTDVFTVEDIGRALKFDDIDEFLSKVGFGDIQTAKITGAIALMQQALR”, the “soluble fraction (log2)” value was -0.0649.
Turning to “HMEREQNIEHGRAIVERELKRLGLSDVYTIADIATALRHDDVDQFLAKIGFGDIQSTQIGGAIAALQQR”, the “soluble fraction (log2)” value was determined as 0.0025.
Take “HMEREQPFAVTEAYRGMRLDRFLQAMLPRMSRAAIQDAIDNRVRLGSGRAAKASLRPAIGDTVFFGQRI”: the “soluble fraction (log2)” value was -1.17.
For the sequence “HMERFRQVNAGMTRDDIYQLLGKPTEKTPFPLKNEEVWSWRHQADGQTVALFNIHLDPDGRVTTTSQSMDL”, the “soluble fraction (log2)” value is 0.739.
The result for “HMERFVVISKDKYANLREEASTNSKVLAKVDNSYLIYNTNTYNENKDWYSVQIERDGNYYQVGYIHKSQL” reads -1.61.
Take “HMERLKRVTLSLNQSNYSVTEIARRLQAITGIKDITVVEDEQAVYLKVDPATFDLTLAQQAV”: the “soluble fraction (log2)” value is -0.474.
As to “HMERLLVSKINGMITEAKVSVEDVVKVVASRGHYPEVKSIDEYPDDFLSRWVVPNFKKIVEMINANKEA”, the “soluble fraction (log2)” value is -0.979.
Take “HMERMTSTEILTRDFLTTNSKIVKKSTIEELSEIIHVSPATIIRTVKKMGYSGFSEYKNELINQ”: the “soluble fraction (log2)” value is -1.73.
In the case of “HMERPEVVAYRLAYASAESLRPALGLVASPSDLEIDERTNTLIVRAVPSVQERVAELVASLDI”, the “soluble fraction (log2)” value is -0.492.
As to “HMERPKSLRELALEHLRNSIIDGSLKMGQVLSERKISEELGVSKSPVREALAQLRDEGLVSIEPQKGARV”, the “soluble fraction (log2)” value was found to be 0.14.
For the sequence “HMERPLFVIEDYRRFAGNEVEISLKKGGKKIRGVIAGTPSDAEVTVRTQGGETTVPLGDVKRAHLVYV”, the “soluble fraction (log2)” value is -0.00192.
Turning to “HMERRDEINSVVSRYVSAITEGKYDLAEVDETGKLRVQTEGREVLPEALSRGTLEQFYFAFRMAVGSI”, the “soluble fraction (log2)” value stood at 0.04.
Turning to “HMERTQSIEAAREQLGEVTKDNVFETETLGALAILKENEPGEYAKIKADLKGKINMNDLERAVKKAAADQR”, the “soluble fraction (log2)” value was found to be 1.02.
As for “HMERYFVLVIYDIVDNKKRLKLSKYLLGYGIRVQKSAFEMMITKEKYNKLIKELPTYIEEGEDSIRLY”, the “soluble fraction (log2)” value was determined as 0.0566.
Take “HMERYLLRDNIPNALHGERLDRVIAIMTGLSRSAVSALIKSNQVLRNGQIAQSISEKVVEGDELEVHLEP”: the “soluble fraction (log2)” value was -0.832.
In the case of “HMESDAIAAAIAALPARYREVLLLRYDNGFSYSEISKALDMTEAAVRKTVQRAKEALQRTLQIQEEDT”, the “soluble fraction (log2)” value was -0.767.
The result for “HMESDRVAHVVAPGETLFSISGKYGIGMGELVAANPVLESRPPRTGDTLLIRLPENPLPAETDAETLS” reads 0.643.
Take “HMESIAEIDRMNAKIFMDEFQDSLSIMQKTTNPETFFSRYDLAMERLDNMVELQQKGIKFTSDLSSLKAQ”: the “soluble fraction (log2)” value came to 0.0865.
With “HMESIEGMYKISLLRKQGNAYVIFEDENKEAVEHIFPEKPTALELGTKVIEMFEYKERYDGLI”, the “soluble fraction (log2)” value is -0.343.
In the case of “HMESILDDFPGLGEKRKKALLEHFGSISKIKAATVGQLREVDGIGFETAAALREFLDANFPA”, the “soluble fraction (log2)” value turned out to be 0.188.
With “HMESIPDELLEAFKQDPAFKQAFYALTAGRQRGYIIHFSQPKQSQTRIGRIEKYKEQIFNGIGLN”, the “soluble fraction (log2)” value was -1.39.
As for “HMESKPLTPSEIKKLRMDANMTQAGLAEVLGMTVKAVEAWESGRNIPSGAADKILRVMQKHPSVIGMMQS”, the “soluble fraction (log2)” value worked out at 0.0281.
With “HMESLNDRIKLVFKDSGLTQMDISKRLNIAQSSVSGIISGKANPSKRTLADIADRFDVNLEWLRDGTGPMK”, the “soluble fraction (log2)” value came out at 0.474.
The result for “HMESLSHRQKSIVDWVQKNGYASIERMAEQFEVSAQTIRRDVIELSERRILQRHHGGASLPAG” reads -0.211; that for “HMESNDSNIEDDFYEGLKSMRKGDLKMSVVFFTRVIEKKPTFAEAWNRRATVYYMLGKFDKSMFDINETLK”, -0.354.
As for “HMESPELIHILKEAEWQIWQQIQGLPEKQRIAMTLFAMDDLSYQEIADVMKVSVSAIESLLFRARTQLKKY”, the “soluble fraction (log2)” value is -0.546.
On to “HMESPLEQLTNRELQTLQMLGKGLSTKQIAAQLNLSVKTVETYRENLKRKLNLDSGSELIRYAIHRSNE”, for which the “soluble fraction (log2)” value was determined as 0.532.
Consider “HMESPLNPTDVRRAAMDLLARREHGVEELRLKLKRRFGREEDFETIATEQLQRLVDEDLLSDTRF”, for which the “soluble fraction (log2)” value was -0.355.
Consider “HMESRETGLPVVIISDGRILQDNLKRRGLDLSWLDKQLAEHGYPDFRDVFLLTVDEAGGVYFVPRE”, for which the “soluble fraction (log2)” value amounted to 0.438.
The result for “HMESSNLESQLKKGIVPNLNGLSAKDALFLLENSGFNVKLYGMGSVKKQSLEAGKKYNKGDKITLIL” reads 0.151; that for “HMESSYKGFILDIETRQFSPTLIQRRGIAINPSGIVETTTEFSFATQEKVLIEDLKLIIDELDLRADY”, -3.69.
The result for “HMESTLNYSQFLSLVNEDRVAEVVIQGKELYVTDVNRSRFKVYAPPDPELIGLLRQKRVIISAKP” reads -0.56.
As for “HMESVDRIYERVRRYADDVGTAKIPMKELDDDGPLGTAVSRIRERRKRGELTEEWEARFETLPGWTWAA”, the figure is 0.045.
Consider “HMESWEDSNIANEFKSTIKIAEKRLAEGGDHPELLEKLEALKQAIINENQTEASKLDDQVNDILFDMDD”, for which the “soluble fraction (log2)” value is 0.602.
As to “HMETEAGIKAYLSSSMIKGIGPVTAQRIVERFGKRTLYVLDQMPEKLLDISGISEAKLEEILNGYRKS”, the “soluble fraction (log2)” value was -0.536.
As for “HMETFGEKDLDELIGRNVELITHDGKVREGLVDSVDRYNVSLVRYLDAGEVAMMVRRREVKAVRLK”, the figure is -0.703.
“HMETFGLSQRELQILSQLHKGQPLKEFAASLFITESTLKTHLSAIYRKMSVKNRVQAIEKAKQSGL”: the “soluble fraction (log2)” value is -1.4.
